In US20240279281A1, “Peptide Inhibitors of Interleukin-23 Receptor” (Janssen Pharmaceutica NV, priority 2023, published 2024):
Starred links: 1 amine or outer side, 2 acyl side, 3 side chain; linkers in the order of their positions; H or OH if unused. Positions of bridges follow the written chain, without caps; N, C: chain ends. Non-standard residues stand in square brackets, D forms with d. Residues, ends and D or L forms follow the SMILES beside them. No end group written: not given here. X5 = 2‑amino‑3‑(3-carbamoyl-1H-pyrazol-4-yl)propanoic acid, NC(=O)c1n[nH]cc1CC(N[*:1])C(=O)[*:2]; X4 = O=C([C@H](Cc1ccc2cc(-c3ccc(N4CCOCC4)cc3)ccc2c1)N[*:1])[*:2]; 2Nal(6-OH) = N[C@@H](Cc1ccc2cc(O)ccc2c1)C(=O)O; Trp(7-Me) = Cc1cccc2c(C[C@H](N)C(=O)O)c[nH]c12; AEF = NCCOc1ccc(C[C@H](N)C(=O)O)cc1; 3Pal = N[C@@H](Cc1cccnc1)C(=O)O; Pen = CC(C)(S)[C@H](N)C(=O)O; Thp = NC1(C(=O)O)CCOCC1; Sar = CNCC(=O)O

How the values were obtained:
IL-23R = molecular target: T1, IL-23R (Homo sapiens, UniProt Q5VWK5); assay: IL23R Reporter Assay; type: cell-based; settings: HEK293 cells containing IL-23R, IL-12Rβ1 and STAT-inducible luciferase reporter; 10 ng/mL IL-23; 5 h; read-out: IC50
T1 construct: host or cells: HEK293
T1 sequence (Q5VWK5 24-629): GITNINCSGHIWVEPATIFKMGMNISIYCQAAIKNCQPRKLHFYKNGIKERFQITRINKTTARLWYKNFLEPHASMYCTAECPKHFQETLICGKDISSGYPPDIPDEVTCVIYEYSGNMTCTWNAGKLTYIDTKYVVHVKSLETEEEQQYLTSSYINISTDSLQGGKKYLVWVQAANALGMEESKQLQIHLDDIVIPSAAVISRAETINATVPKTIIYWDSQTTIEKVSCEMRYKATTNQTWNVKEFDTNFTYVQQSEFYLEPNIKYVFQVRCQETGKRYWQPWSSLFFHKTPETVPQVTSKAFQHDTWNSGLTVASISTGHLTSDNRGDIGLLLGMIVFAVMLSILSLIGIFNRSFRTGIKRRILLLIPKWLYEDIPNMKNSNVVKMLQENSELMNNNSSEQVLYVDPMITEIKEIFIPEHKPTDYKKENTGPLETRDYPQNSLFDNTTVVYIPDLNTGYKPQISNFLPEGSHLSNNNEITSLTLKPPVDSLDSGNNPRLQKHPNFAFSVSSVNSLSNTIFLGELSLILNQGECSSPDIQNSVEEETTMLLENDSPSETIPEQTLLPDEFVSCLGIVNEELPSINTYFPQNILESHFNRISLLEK
Method: Compounds were serially diluted in 100% (v/v) DMSO) and plated using an Echo acoustic dispenser (Labcyte) into 1536-well non-treated black assay plates (Corning #9146). […] After 5 h at 37° C., 5% CO2, 95% relative humidity, cells were placed at 20° C. and treated with BioGlo reagent (Promega) according to the Manufacturer's instructions. Luminescence was measured on a Pherastar FSX (BMG LabTech).

[1] = molecular target: T2, interleukin-23 receptor (IL-23R), Q5VWK5; assay: cell-based or functional assay
T2 chain: T1 sequence (Q5VWK5 24-629)

## CC(=O)NCCCC[C@@H]1NC(=O)[C@H](Cc2c[nH]c3c(C)cccc23)NC(=O)[C@H]([C@@H](C)O)NC(=O)[C@H](CC(N)=O)NC(=O)[C@@H](NC(=O)[C@@H](CCCNC(=N)N)NC(C)=O)C(C)(C)SSC(C)(C)[C@@H](C(=O)N[C@@H](Cc2ccc(OCCN)cc2)C(=O)N[C@@H](Cc2ccc3cc(-c4ccc(N5CCOCC5)cc4)ccc3c2)C(=O)NC2(C(=O)N[C@@H](CCC(=O)O)C(=O)N[C@@H](CC(N)=O)C(=O)NC3(C(N)=O)CCOCC3)CCOCC2)NC1=O [SEQ ID NO: 432, MeCO-r-Pen(3)-N-T-7MeW-K(Ac)-Pen(3)-AEF-2Nal6(Ph4(NMorph))-THP-E-N-THP-CONH2] (Ac-[dR][Pen]NT[Trp(7-Me)]K(Ac)[Pen][AEF][X4][Thp]EN[Thp]-NH2; disulfide 2-7)
IL-23R
  IC50: > 100 nM

B1: SEQ ID NO: 420 (peptide)
peptide: R[Pen]ET[Trp(7-Me)]K(Ac)[Pen][AEF][2Nal(6-OH)][Thp]KN[3Pal][Sar]
modifications: not fully specified (bridges); ends and bridges not checked; also: K11: lipidated lysine
[1]
  PBMC pSTAT3 IC50: < 0.1 nM

B2: SEQ ID NO: 421 (peptide)
peptide: R[Pen]ET[Trp(7-Me)]K(Ac)[Pen][AEF][2Nal(6-OH)][Thp]K(Ac)N[3Pal][Sar]
modifications: not fully specified (bridges); ends and bridges not checked
[1]
  PBMC pSTAT3 IC50: < 1 nM

B3: SEQ ID NO: 423 (peptide)
peptide: K[Pen]ET[Trp(7-Me)]K(Ac)[Pen][AEF][2Nal(6-OH)][Thp]K(Ac)N[3Pal][Sar]
modifications: not fully specified (bridges); ends and bridges not checked; also: lipidated Lys1, lipid not given here
[1]
  PBMC pSTAT3 IC50: < 1 nM

B4: SEQ ID NO: 425 (peptide)
peptide: R[Pen]KT[Trp(7-Me)]K(Ac)[Pen][AEF][2Nal(6-OH)][Thp]EN[3Pal][Sar]
modifications: not fully specified (residue 3, bridges); ends and bridges not checked; also: K3: lipidated lysine
[1]
  PBMC pSTAT3 IC50: < 1 nM

B5: SEQ ID NO: 427 (peptide)
peptide: K[Pen]NT[Trp(7-Me)]K(Ac)[Pen][2‑amino‑3‑(4-(2-aminoethoxy)phenyl)propanoic acid][2‑amino‑3‑(6-hydroxynaphthalen-2-yl)propanoic acid][Thp]K(Ac)N[3Pal][Sar]
modifications: not fully specified (residue 1, bridges); ends and bridges not checked; also: Lys1 lipidated (lipid not given here)
[1]
  PBMC pSTAT3 IC50: < 1 nM

B6: SEQ ID NO: 433 (peptide)
peptide: R[Pen]NT[Trp(7-Me)]K(Ac)[Pen][2‑amino‑3‑(4-(2-aminoethoxy)phenyl)propanoic acid][3‑(6-(1H-pyrazol-4-yl)naphthalen-2-yl)‑2‑aminopropanoic acid][Thp]EN[Thp]
modifications: not fully specified (bridges); ends and bridges not checked
[1]
  PBMC pSTAT3 IC50: > 1 nM

B7: SEQ ID NO: 434 (peptide)
peptide: R[Pen]NT[Trp(7-Me)]K(Ac)[Pen][2‑amino‑3‑(4-(2-aminoethoxy)phenyl)propanoic acid][2‑amino‑3‑(6-(3-(trifluoromethyl)-1H-pyrazol-4-yl)naphthalen-2-yl)propanoic acid][Thp]EN[Thp]
modifications: not fully specified (bridges); ends and bridges not checked
[1]
  PBMC pSTAT3 IC50: > 1 nM

B8: SEQ ID NO: 435 (peptide)
peptide: R[Pen]NT[Trp(7-Me)]K(Ac)[Pen][N,N,N‑trimethylethanaminium][2‑amino‑3‑(6-hydroxynaphthalen-2-yl)propanoic acid][Thp]EN[3Pal][Sar]
modifications: disulfide 2-7 (inferred); not fully specified; ends not checked
[1]
  PBMC pSTAT3 IC50: < 0.1 nM

B9: SEQ ID NO: 436 (peptide)
peptide: R[Pen]NT[Trp(7-Me)]K(Ac)[Pen][N,N,N‑trimethylethanaminium][2‑amino‑3‑(6-hydroxynaphthalen-2-yl)propanoic acid][Thp]EN[3Pal][Sar]
modifications: disulfide 2-7 (inferred); not fully specified; ends not checked
[1]
  PBMC pSTAT3 IC50: < 1 nM

B10: SEQ ID NO: 438 (peptide)
peptide: R[Pen]NT[Trp(7-Me)]K(Ac)[Pen][2‑amino‑3‑(4-(2-aminoethoxy)phenyl)propanoic acid][2‑amino‑3‑(6-(4-methoxyphenyl)naphthalen-2-yl)propanoic acid][Thp]EN[Thp]
modifications: disulfide 2-7 (inferred); ends not checked
[1]
  PBMC pSTAT3 IC50: > 1 nM

B11: SEQ ID NO: 440 (peptide)
peptide: R[Pen]NT[Trp(7-Me)]K(Ac)[Pen][2‑amino‑3‑(4-(2-aminoethoxy)phenyl)propanoic acid][2‑amino‑3‑(6-hydroxynaphthalen-2-yl)propanoic acid][Thp]EN[X5][Sar]
modifications: disulfide 2-7 (inferred); ends not checked
[1]
  PBMC pSTAT3 IC50: > 1 nM

B12: SEQ ID NO: 443 (peptide)
peptide: R[Pen]NT[Trp(7-Me)]K(Ac)[Pen][2‑amino‑3‑(4-(2-aminoethoxy)phenyl)propanoic acid][2‑amino‑3‑(5-bromonaphthalen-2-yl)propanoic acid][Thp]EN[Thp]
modifications: disulfide 2-7 (inferred); ends not checked
[1]
  PBMC pSTAT3 IC50: > 1 nM

B13: SEQ ID NO: 84 (peptide)
peptide: R[Pen]NT[Trp(7-Me)]K[Pen][2‑amino‑3‑(4-(2-aminoethoxy)phenyl)propanoic acid][2‑amino‑3‑(6-hydroxynaphthalen-2-yl)propanoic acid][Thp]EN[3Pal][Sar]
modifications: not fully specified (bridges); ends and bridges not checked; also: K6: lipidated lysine, lipid not given here
[1]
  IL23R Reporter Assay IC50: < 10 nM

B14: SEQ ID NO: 85 (peptide)
peptide: K[Pen]NT[Trp(7-Me)]K(Ac)[Pen][2‑amino‑3‑(4-(2-aminoethoxy)phenyl)propanoic acid][2‑amino‑3‑(6-hydroxynaphthalen-2-yl)propanoic acid][Thp]K(Ac)N[3Pal][Sar]
modifications: not fully specified (bridges); ends and bridges not checked; also: K1: lipidated lysine, lipid not given here
[1]
  IL23R Reporter Assay IC50: < 10 nM

B15: SEQ ID NO: 86 (peptide)
peptide: R[Pen]NT[Trp(7-Me)]K(Ac)[Pen][2‑amino‑3‑(4-(2-aminoethoxy)phenyl)propanoic acid][2‑amino‑3‑(6-hydroxynaphthalen-2-yl)propanoic acid][Thp]KN[3Pal][Sar]
modifications: not fully specified (bridges); ends and bridges not checked; also: K11: lipidated lysine, lipid not given here
[1]
  IL23R Reporter Assay IC50: < 10 nM

B16: SEQ ID NO: 87 (peptide)
peptide: R[Pen]NT[Trp(7-Me)]K(Ac)[Pen][2‑amino‑3‑(4-(2-aminoethoxy)phenyl)propanoic acid][2‑amino‑3‑(6-hydroxynaphthalen-2-yl)propanoic acid][Thp]KN[3Pal][Sar]
modifications: not fully specified (bridges); ends and bridges not checked; also: K11: lipidated lysine, lipid not given here
[1]
  IL23R Reporter Assay IC50: < 10 nM
